Where a chain is given by its changes, count along the chain named.
B1: 1.139.15 hAb (antibody, V domains shown)
VH: QLQLQESGPGLVKPSETLSLTCTVSGGSISSTTYYWGWIRQPPGKGLEWIGSISYSGTTYYNPSLKSRVTIPVDTSKNQISLKLSSVTAADTSLYYCARHLGYNSNWYPFDYWGQGTLVTVSS
VL: QSALTQPPSVSGSPGQSVTISCTGTSSDVGSYNRVSWYQQPPGTAPEVIIYEVSNRPSGVPDRFSGSKSGNTASLTISGLQAEDEADYYCSSYTSSSTWVFGGGTKLTVL
B2: 1.49.9 hAb (antibody, V domains shown)
VH: QLQLQESGPGLVKPSETLSLTCTVSGGSISSSTYYWGWIRQPPGKGLEWIGSISYSGSTYYNPSLKSRVTISVDTSKNQFSLKLSSVTDADTAVYYCARHLGYNGRYLPFDYWGQGTLVTVSS
VL: B1 VL with P8A, V18I, S31F, R34Y, P41H, T44K, I49M, E52D, P61S, S96I
B3: 1.103.11 hAb (antibody, V domains shown)
VH: QLQLQESGPGLVKPSETLTLTCTVSADSISSTTYYWVWIRQPPGKGLEWIGSISYSGSTYYNPSLKSRVTVSVDTSKNQFSLKLNSVAATDTALYYCARHLGYNGRYLPFDYWGQGTLVTVSS
VL: QSALTQPASVSGSPGQSITISCTGTSSDVGFYNYVSWYQQHPGKAPELMIYDVSNRPSGVSDRFSGSKSGNTASLTISGLQAEDEADYYCSSYTNISTWVFGGGTKLTVL
B4: 1.7.3 hAb (antibody, V domains shown)
VH: B3 VH with A26G, S58N, V71I, Q79H, N85S
VL: B3 VL with S54T, N95S
B5: 1.153.7 hAb (antibody, V domains shown)
VH: EVQLLESGGGLVQPGGSLRLSCAASGFTFSSHAMSWVRQAPGKGLEWVSTITGGGGSIYYADSVKGRFTISRDNSKNTLYLQMNSLRAEDTAVYYCAKNRAGEGYFDYWGQGTLVTVSS
VL: SYELTQPLSVSVALGQTARITCGGDNIGNKDVHWYQQKPGQAPVLVIYRDSNRPSGIPEGFSGSNSGNTATLTISRAQAGDEADYYCQVWDSIWVFGGGTKLTVL

Molecular target: recombinant human PD-1 (human, UniProt Q15116 25-167)
Test: SPR

Chain of recombinant human PD-1 (Q15116 25-167): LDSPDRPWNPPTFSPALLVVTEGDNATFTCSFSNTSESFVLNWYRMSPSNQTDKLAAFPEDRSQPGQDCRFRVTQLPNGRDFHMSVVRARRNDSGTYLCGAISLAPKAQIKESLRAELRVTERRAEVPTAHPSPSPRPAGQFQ

Binder	Kd
B1	3.71 nM
B2	1.07 nM
B3	0.175 nM
B4	0.176 nM
B5	2.79 nM

Molecular target: T1, human PD-1 expressed on cells (human, UniProt Q15116 25-288)
Test: FACS

T1 sequence (Q15116 25-288): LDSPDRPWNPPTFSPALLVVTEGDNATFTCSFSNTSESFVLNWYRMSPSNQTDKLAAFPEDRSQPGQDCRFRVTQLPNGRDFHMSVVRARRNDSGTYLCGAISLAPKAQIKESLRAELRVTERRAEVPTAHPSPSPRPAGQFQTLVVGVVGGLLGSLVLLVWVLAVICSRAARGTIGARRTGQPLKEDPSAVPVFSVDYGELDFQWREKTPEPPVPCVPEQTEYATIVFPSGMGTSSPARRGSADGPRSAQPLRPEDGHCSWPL

Binder	EC50
B1	1.92 nM
B2	2.15 nM
B3	2.09 nM
B4	2.44 nM
B5	2.62 nM

Molecular target: T1, human PD-1 expressed on cells
Test: FACS blocking of PD-L1 binding

Binder	IC50
B1	3.1 nM
B2	4.21 nM
B3	4.44 nM
B4	3.51 nM
B5	4.49 nM

From patent US20190270815A1 (published 2019)
